Data reported in article PMC9181005, “Insights to the Structural Basis for the Stereospecificity of the Escherichia coli Phytase, AppA” (International Journal of Molecular Sciences, 2022).

T1: AppA (Escherichia coli periplasmic phytase) (Escherichia coli, UniProt P07102)
T1 construct: mature enzyme lacking the periplasmic signal peptide (residues 1–22)
T1 sequence (P07102 23-432): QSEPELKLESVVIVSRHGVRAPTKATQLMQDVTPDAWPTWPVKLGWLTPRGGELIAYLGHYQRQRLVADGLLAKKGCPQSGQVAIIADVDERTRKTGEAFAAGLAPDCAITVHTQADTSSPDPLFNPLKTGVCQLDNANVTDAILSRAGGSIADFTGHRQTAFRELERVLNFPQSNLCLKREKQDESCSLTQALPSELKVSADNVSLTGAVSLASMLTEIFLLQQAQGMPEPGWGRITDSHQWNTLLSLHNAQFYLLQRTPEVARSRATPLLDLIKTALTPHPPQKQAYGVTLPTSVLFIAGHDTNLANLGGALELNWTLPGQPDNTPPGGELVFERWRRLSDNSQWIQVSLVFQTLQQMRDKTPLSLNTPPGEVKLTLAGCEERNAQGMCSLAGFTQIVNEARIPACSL


Tests used:
[1] = molecular target: T1, AppA (Escherichia coli periplasmic phytase); assay: X-ray crystal structure at […] Å (soak at pH […]); phytase inhibition assay at pH […]; format: biochemical
[2] = substrate: O=P(O)(O)O[C@H]1[C@H](OP(=O)(O)O)[C@@H](OP(=O)(O)O)[C@H](OP(=O)(O)O)[C@@H](OP(=O)(O)O)[C@H]1OP(=O)(O)O; assay: phosphate release kinetics (Km), HPLC of products; format: biochemical, Escherichia coli; details: active site
[3] = preferential hydrolysis of the 1D-6-phosphate
[4] = predominantly 1D-1/3-phytase activity

| Molecule | Km [2] | kcat [2] | kcat/Km [2] | also measured |
| --- | --- | --- | --- | --- |
| O=S(=O)(O)O[C@H]1[C@H](OS(=O)(=O)O)[C@@H](OS(=O)(=O)O)[C@H](OS(=O)(=O)O)[C@@H](OS(=O)(=O)O)[C@H]1OS(=O)(=O)O [InsS6] | – | – | – | IC50 [1]: ~10 µM |
| AppA (Escherichia coli periplasmic phytase) (Escherichia coli K-12) (protein, mature enzyme lacking the periplasmic signal peptide (residues 1–22)) QSEPELKLESVVIVSRHGVRAPTKATQLMQDVTPDAWPTWPVKLGWLTPRGGELIAYLGHYQRQRLVADGLLAKKGCPQSGQVAIIADVDERTRKTGEAFAAGLAPDCAITVHTQADTSSPDPLFNPLKTGVCQLDNANVTDAILSRAGGSIADFTGHRQTAFRELERVLNFPQSNLCLKREKQDESCSLTQALPSELKVSADNVSLTGAVSLASMLTEIFLLQQAQGMPEPGWGRITDSHQWNTLLSLHNAQFYLLQRTPEVARSRATPLLDLIKTALTPHPPQKQAYGVTLPTSVLFIAGHDTNLANLGGALELNWTLPGQPDNTPPGGELVFERWRRLSDNSQWIQVSLVFQTLQQMRDKTPLSLNTPPGEVKLTLAGCEERNAQGMCSLAGFTQIVNEARIPACSL | – | – | – | Km [2, 3]: 161 µM; kcat [2, 3]: 10200 s⁻¹; kcat/Km [2, 3]: 6.4e+07 M⁻¹ s⁻¹ |
| AppA-HDE (Escherichia coli K-12; T327E) (protein, mature enzyme lacking the periplasmic signal peptide (residues 1–22)) QSEPELKLESVVIVSRHGVRAPTKATQLMQDVTPDAWPTWPVKLGWLTPRGGELIAYLGHYQRQRLVADGLLAKKGCPQSGQVAIIADVDERTRKTGEAFAAGLAPDCAITVHTQADTSSPDPLFNPLKTGVCQLDNANVTDAILSRAGGSIADFTGHRQTAFRELERVLNFPQSNLCLKREKQDESCSLTQALPSELKVSADNVSLTGAVSLASMLTEIFLLQQAQGMPEPGWGRITDSHQWNTLLSLHNAQFYLLQRTPEVARSRATPLLDLIKTALTPHPPQKQAYGVTLPTSVLFIAGHDENLANLGGALELNWTLPGQPDNTPPGGELVFERWRRLSDNSQWIQVSLVFQTLQQMRDKTPLSLNTPPGEVKLTLAGCEERNAQGMCSLAGFTQIVNEARIPACSL | 92 µM | 1690 s⁻¹ | 1.8e+07 M⁻¹ s⁻¹ | – |
| AppA-HAT (Escherichia coli K-12; D326A) (protein, mature enzyme lacking the periplasmic signal peptide (residues 1–22)) QSEPELKLESVVIVSRHGVRAPTKATQLMQDVTPDAWPTWPVKLGWLTPRGGELIAYLGHYQRQRLVADGLLAKKGCPQSGQVAIIADVDERTRKTGEAFAAGLAPDCAITVHTQADTSSPDPLFNPLKTGVCQLDNANVTDAILSRAGGSIADFTGHRQTAFRELERVLNFPQSNLCLKREKQDESCSLTQALPSELKVSADNVSLTGAVSLASMLTEIFLLQQAQGMPEPGWGRITDSHQWNTLLSLHNAQFYLLQRTPEVARSRATPLLDLIKTALTPHPPQKQAYGVTLPTSVLFIAGHATNLANLGGALELNWTLPGQPDNTPPGGELVFERWRRLSDNSQWIQVSLVFQTLQQMRDKTPLSLNTPPGEVKLTLAGCEERNAQGMCSLAGFTQIVNEARIPACSL | – | – | – | Km [2, 4]: 32 µM; kcat [2, 4]: 10.5 s⁻¹; kcat/Km [2, 4]: 320000 M⁻¹ s⁻¹ |
| AppA-HAE (Escherichia coli K-12; D326A/T327E) (protein, mature enzyme lacking the periplasmic signal peptide (residues 1–22)) QSEPELKLESVVIVSRHGVRAPTKATQLMQDVTPDAWPTWPVKLGWLTPRGGELIAYLGHYQRQRLVADGLLAKKGCPQSGQVAIIADVDERTRKTGEAFAAGLAPDCAITVHTQADTSSPDPLFNPLKTGVCQLDNANVTDAILSRAGGSIADFTGHRQTAFRELERVLNFPQSNLCLKREKQDESCSLTQALPSELKVSADNVSLTGAVSLASMLTEIFLLQQAQGMPEPGWGRITDSHQWNTLLSLHNAQFYLLQRTPEVARSRATPLLDLIKTALTPHPPQKQAYGVTLPTSVLFIAGHAENLANLGGALELNWTLPGQPDNTPPGGELVFERWRRLSDNSQWIQVSLVFQTLQQMRDKTPLSLNTPPGEVKLTLAGCEERNAQGMCSLAGFTQIVNEARIPACSL | 33 µM | 12.5 s⁻¹ | 380000 M⁻¹ s⁻¹ | – |
| AppA-HET (Escherichia coli K-12; D326E) (protein, mature enzyme lacking the periplasmic signal peptide (residues 1–22)) QSEPELKLESVVIVSRHGVRAPTKATQLMQDVTPDAWPTWPVKLGWLTPRGGELIAYLGHYQRQRLVADGLLAKKGCPQSGQVAIIADVDERTRKTGEAFAAGLAPDCAITVHTQADTSSPDPLFNPLKTGVCQLDNANVTDAILSRAGGSIADFTGHRQTAFRELERVLNFPQSNLCLKREKQDESCSLTQALPSELKVSADNVSLTGAVSLASMLTEIFLLQQAQGMPEPGWGRITDSHQWNTLLSLHNAQFYLLQRTPEVARSRATPLLDLIKTALTPHPPQKQAYGVTLPTSVLFIAGHETNLANLGGALELNWTLPGQPDNTPPGGELVFERWRRLSDNSQWIQVSLVFQTLQQMRDKTPLSLNTPPGEVKLTLAGCEERNAQGMCSLAGFTQIVNEARIPACSL | 171 µM | 128 s⁻¹ | 700000 M⁻¹ s⁻¹ | – |
